Columns and labels:
[1] = target: T1, PF4/heparin complex (human PF4 complexed with heparin) (human, UniProt P02776 32-101); assay: BLI (Octet), biotinylated PF4/heparin on streptavidin sensors, scFv 1 µg/mL, 1:1 model
T1 construct: Multimeric complex of PF4 with heparin (not a protein); In the EIAs: PF4 captured on biotinylated heparin on streptavidin plates; In the SRA: platelets with 0.2 U/mL heparin; also called PF4 and heparin complexes
T1 sequence: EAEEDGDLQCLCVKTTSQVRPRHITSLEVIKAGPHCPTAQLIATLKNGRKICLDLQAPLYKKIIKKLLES
Experimental: (§1) The Octet-QK Red 96 (FortéBio, Menlo Park, CA) instrumentation was used to conduct all BLI experiments. A 96-well microtiter plate (black, flat-bottom) was used to hold 200 μL per well of either sample or buffer. Pre-coated streptavidin biosensor tips (FortéBio) were hydrated in phosphate buffered saline (PBS) containing 1% bovine serum albumin (BSA, Sigma-Aldrich) before performing all kinetic assays. Each step was performed at an operating temperature of 23° C. with agitation at 1000 rpm. Streptavidin tips were first equilibrated in PBS+1% BSA to establish a baseline. […] The PF4-coated tips were then dipped into PBS+1% BSA for 13 minutes to re-establish a baseline. Tips were then incubated in an analyte solution containing half-fold dilutions of wildtype scFv (4.0, 2.0, 1.0, 0.5, 0.25 μg/mL in PBS+1% BSA) for 10 minutes to measure association. For mutant scFv association, tips were incubated in an analyte solution containing 200 μL of each mutant and wildtype scFv at a final concentration of 1 μg/mL in PBS+1% BSA. Antibody dissociation steps were performed by dipping sensors in wells containing PBS+1% BSA for 56 minutes. The following negative controls included in these kinetic experiments were also measured: 200 μL of buffer to replace both the antigen and scFv and 200 μL buffer replacing scFv only. Each experiment was performed with PF4 or with PF4/heparin as the immobilized antigen.
(§2) BLI experiments were performed to evaluate binding responses and affinities of wildtype and mutant scFv. Biotinylated PF4 alone or complexed with heparin was immobilized on streptavidin biosensors and used to capture wildtype scFv. Half-fold serial dilutions of wildtype scFv ranging from 0.25 μg/mL to 4 μg/mL were used to determine the optimal concentrations for future experiments PF4 (PF4 FIG. 3; PF4/heparin FIG. 4).

[2] = target: T1, PF4/heparin complex (human PF4 …); assay: competition EIA, scFv 50 µg/mL; competitor HIT-negative sera antibodies, n=10
[3] = target: T2, Human PF4 (CXCL4), biotinylated, without heparin (human, UniProt P02776 32-101, biotinylated with EZ-link-Sulfo-NHS-LC-Biotin (sites not given)); assay: BLI (Octet), biotinylated PF4 without heparin on streptavidin sensors, 1:1 model; scFv at 4.0 µg/mL
T2 construct: Immobilised on streptavidin biosensors for BLI; also called PF4 alone; platelet factor 4
T2 sequence: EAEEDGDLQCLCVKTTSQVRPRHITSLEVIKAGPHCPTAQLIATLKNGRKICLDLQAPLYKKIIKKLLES
Experimental: as §1, §2

[4] = target: T1, PF4/heparin complex (human PF4 …); assay: cell-based or functional assay
[5] = target: T1, PF4/heparin complex (human PF4 …); assay: BLI (Octet), biotinylated PF4/heparin on streptavidin sensors, scFv 1 µg/mL
Experimental: as §1, §2

[6] = target: T2, Human PF4 (CXCL4), biotinylated, …; assay: BLI (Octet), biotinylated PF4 without heparin on streptavidin sensors, scFv 1 µg/mL
Experimental: as §1, §2

[7] = target: T2, Human PF4 (CXCL4), biotinylated, …; assay: BLI (Octet), biotinylated PF4 without heparin on streptavidin sensors, 1:1 model; scFv at 0.25 µg/mL (response near baseline, software limit value)
Experimental: All data was analyzed based on a 1:1 homogenous ligand binding model using Octet® User Software version 3.1.
as §1, with “Antibody dissociation steps were performed by dipping sensors in wells containing PBS+1% BSA for 56 minutes.” left out, “Each experiment was performed with PF4 or with PF4/heparin as the immobilized antigen.” left out

Kd [1]: 5.38 nM
mean % inhibition of serum antibody binding [2]: -38.3%
Kd [3]: 24.1 nM
koff [3]: 0.000596 s⁻¹
kon [3]: 24800 M⁻¹ s⁻¹
% inhibition of 14C-serotonin release (SRA), HIT-Positive Patient #1 serum, scFv 50 µg/mL [4]: 15.6%
% inhibition of 14C-serotonin release (SRA), HIT-Positive Patient #1 serum, scFv 75 µg/mL [4]: 17.8%
% inhibition of 14C-serotonin release (SRA), HIT-Positive Patient #2 serum, scFv 50 µg/mL [4]: 37.2%
% inhibition of 14C-serotonin release (SRA), HIT-Positive Patient #2 serum, scFv 75 µg/mL [4]: 15.4%
% inhibition of 14C-serotonin release (SRA), HIT-Positive Patient #3 serum, scFv 50 µg/mL [4]: 4.8%
% inhibition of 14C-serotonin release (SRA), HIT-Positive Patient #3 serum, scFv 75 µg/mL [4]: 12%
% inhibition of 14C-serotonin release (SRA), HIT-Positive Patient #4 serum, scFv 50 µg/mL [4]: 6.7%
% inhibition of 14C-serotonin release (SRA), HIT-Positive Patient #4 serum, scFv 75 µg/mL [4]: 4.4%
% inhibition of 14C-serotonin release (SRA), HIT-Positive Patient #5 serum, scFv 50 µg/mL [4]: -6.9%
% inhibition of 14C-serotonin release (SRA), HIT-Positive Patient #5 serum, scFv 75 µg/mL [4]: 20.8%
average binding response (wavelength shift) [5]: 0.0758 nm
average binding response (wavelength shift) [6]: 0.0386 nm
Kd [7]: < 0.001 nM
B1: Wildtype scFv (KKO-derived single chain variable fragment) (scFv)
scFv: DIQMIQSQKFMSTSVGDRVTVTCKASQNVGTNVAWYQQKPGQSPNALIYSASYRYSGVPDRFTGSGSGTDFTLTITNVQSEDLADYFCQQYNSYPLTFGTGTKLDLKGGGGSGGGGSGGGGSVQLQQSGAELVKPGASVKLSCKASGYTFTNYFIYWVKQRPGQGLEWIGEINPRNGDTDFNEKFESRATLTVDKSSSTAYMQLSSLTSEDSAIYYCTRSPYGNNYGFTYWGQGTLVTVSA
notes: VL-(G4S)3 linker-VH; expressed in E. coli BL21 from pADL-22c, purified on Ni-NTA as histidine-tagged scFv, about 28 kDa; also called WT; KKO-scFv; not shown: histidine tag from the pADL-22c vector
